Results published in patent publication US20240197902A1.
Like-named read-outs stand apart in the source and are kept apart here.

Columns and labels:
Test in all cases: cell-based or functional assay
[1] = target: T1, GDF11 (UniProt O95390)
T1 sequence (looked up): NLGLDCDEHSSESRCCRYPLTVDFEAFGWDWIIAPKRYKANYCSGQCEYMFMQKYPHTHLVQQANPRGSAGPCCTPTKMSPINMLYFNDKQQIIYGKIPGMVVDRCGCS

[2] = target: T2, BMP9 (UniProt Q9UK05)
T2 sequence (looked up): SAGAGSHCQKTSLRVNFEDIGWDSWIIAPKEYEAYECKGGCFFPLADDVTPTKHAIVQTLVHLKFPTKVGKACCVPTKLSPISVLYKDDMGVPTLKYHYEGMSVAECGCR

[3] = target: BMP9 (UniProt Q9UK05); remark: listed apart in the source
[4] = target: GDF11 (UniProt O95390); remark: listed apart in the source
[5] = target: activin A (UniProt P08476)
[6] = target: T1, GDF11; remark: listed apart in the source
[7] = target: T3, GDF8 (UniProt O14793)
T3 sequence (looked up): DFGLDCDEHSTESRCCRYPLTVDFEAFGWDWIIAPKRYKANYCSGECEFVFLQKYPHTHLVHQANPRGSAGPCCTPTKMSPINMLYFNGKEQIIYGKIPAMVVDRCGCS

[8] = target: T4, BMP10 (UniProt O95393)
T4 sequence (looked up): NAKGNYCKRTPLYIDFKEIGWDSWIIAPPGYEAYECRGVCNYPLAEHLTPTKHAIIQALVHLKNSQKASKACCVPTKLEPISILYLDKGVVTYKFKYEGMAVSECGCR

[9] = target: T5, activin A (UniProt P08476); remark: listed apart in the source
T5 sequence (looked up): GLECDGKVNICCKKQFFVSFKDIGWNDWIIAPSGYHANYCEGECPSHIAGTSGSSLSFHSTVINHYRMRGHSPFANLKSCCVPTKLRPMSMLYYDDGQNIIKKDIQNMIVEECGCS

[10] = target: T6, activin B (UniProt P09529)
T6 sequence (looked up): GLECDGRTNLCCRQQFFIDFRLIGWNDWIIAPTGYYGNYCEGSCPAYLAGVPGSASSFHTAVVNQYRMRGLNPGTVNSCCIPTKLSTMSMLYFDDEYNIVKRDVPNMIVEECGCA

[11] = target: T2, BMP9; remark: listed apart in the source
[12] = target: T5, activin A; remark: listed apart in the source
[13] = target: GDF8 (UniProt O14793); remark: listed apart in the source
[14] = target: GDF11 (UniProt O95390); remark: listed apart in the source
[15] = target: activin A (UniProt P08476); remark: listed apart in the source
[16] = target: activin B (UniProt P09529); remark: listed apart in the source
[17] = target: BMP10 (UniProt O95393); remark: listed apart in the source

ActRIIB(20-134)-G1Fc (Fc fusion), sequence (chain): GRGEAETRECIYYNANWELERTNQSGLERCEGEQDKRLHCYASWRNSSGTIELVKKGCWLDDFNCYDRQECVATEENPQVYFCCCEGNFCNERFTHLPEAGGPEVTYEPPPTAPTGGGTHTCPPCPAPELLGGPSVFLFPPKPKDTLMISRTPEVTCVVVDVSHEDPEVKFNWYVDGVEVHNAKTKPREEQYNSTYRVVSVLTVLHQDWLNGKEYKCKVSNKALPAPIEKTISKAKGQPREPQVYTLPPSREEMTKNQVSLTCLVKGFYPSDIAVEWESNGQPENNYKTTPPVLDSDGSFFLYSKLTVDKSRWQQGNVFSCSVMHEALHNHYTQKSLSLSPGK

Substance | IC50, A204 CAGA12 reporter gene assay [1] [µg/mL] | IC50, A204 CAGA12 reporter gene assay [2] [µg/mL] | IC50, A204 CAGA12 reporter gene assay [12] [µg/mL] | also measured
variant ActRIIB-Fc polypeptide K74R (Fc fusion) | 0.045 | 0.165 |  | 
variant ActRIIB-Fc polypeptide F82W (Fc fusion) | 0.276 |  |  | 
variant ActRIIB-Fc polypeptide Y60K (Fc fusion) | 0.414 |  |  | 
ActRIIB(F82K)-G1Fc (Fc fusion) |  |  |  | IC50, A204 CAGA12 reporter gene assay [3]: 5 µg/mL; IC50, A204 CAGA12 reporter gene assay [4]: 0.015 µg/mL; IC50, A204 CAGA12 reporter gene assay [5]: 0.01 µg/mL
ActRIIB(20-134)-G1Fc (Fc fusion) | 0.009 | 0.031 | 0.008 | IC50, A204 CAGA12 reporter gene assay [6]: 0.12 nM; IC50, A204 CAGA12 reporter gene assay [7]: 0.95 nM; IC50, A204 CAGA12 reporter gene assay [8]: 0.036 nM; IC50, A204 CAGA12 reporter gene assay [9]: 0.05 nM; IC50, A204 CAGA12 reporter gene assay [10]: 0.067 nM; IC50, A204 CAGA12 reporter gene assay [11]: 1.82 nM
ActRIIB(F82T)-G1Fc (Fc fusion) |  |  |  | IC50, A204 CAGA12 reporter gene assay [13]: 2.17 nM; IC50, A204 CAGA12 reporter gene assay [14]: 0.27 nM; IC50, A204 CAGA12 reporter gene assay [15]: 0.1 nM; IC50, A204 CAGA12 reporter gene assay [16]: 0.09 nM; IC50, A204 CAGA12 reporter gene assay [17]: 0.07 nM
variant ActRIIB-Fc polypeptide R40A (Fc fusion) | 0.591 | 1.21 |  | 
ActRIIB(F82I)-G1Fc (Fc fusion) |  |  |  | IC50, A204 CAGA12 reporter gene assay [3]: 0.277 µg/mL; IC50, A204 CAGA12 reporter gene assay [4]: 0.009 µg/mL; IC50, A204 CAGA12 reporter gene assay [5]: 0.011 µg/mL
ActRIIB(K55A)-G1Fc (Fc fusion) |  |  |  | IC50, A204 CAGA12 reporter gene assay [3]: 0.122 µg/mL; IC50, A204 CAGA12 reporter gene assay [4]: 0.011 µg/mL; IC50, A204 CAGA12 reporter gene assay [5]: 0.015 µg/mL
variant ActRIIB-Fc polypeptide E52K (Fc fusion) | 0.296 | 10 | 0.762 | 
variant ActRIIB-Fc polypeptide A24N (Fc fusion) | 0.099 | 0.409 | 0.128 | 
variant ActRIIB-Fc polypeptide L79R (Fc fusion) | 0.234 |  |  | 
variant ActRIIB-Fc polypeptide E50K (Fc fusion) | 0.18 | 0.721 | 0.132 | 
variant ActRIIB-Fc polypeptide E52A (Fc fusion) | 0.071 | 0.359 | 0.198 | 
variant ActRIIB-Fc polypeptide K55D (Fc fusion) | 0.365 | 5.5 | 0.396 | 
ActRIIB(K55E)-G1Fc (Fc fusion) |  |  |  | IC50, A204 CAGA12 reporter gene assay [3]: 0.29 µg/mL; IC50, A204 CAGA12 reporter gene assay [4]: 0.014 µg/mL; IC50, A204 CAGA12 reporter gene assay [5]: 0.019 µg/mL

Now from value to substance, other results behind:

IC50, A204 CAGA12 reporter gene assay [1] [µg/mL] | IC50, A204 CAGA12 reporter gene assay [2] [µg/mL] | IC50, A204 CAGA12 reporter gene assay [12] [µg/mL] | Substance | also measured
0.389 | 40 |  | variant ActRIIB-Fc polypeptide F82W/N83A (Fc fusion) | 
0.544 |  |  | variant ActRIIB-Fc polypeptide Y60P (Fc fusion) | 
0.318 | 0.777 | 0.206 | variant ActRIIB-Fc polypeptide K55R (Fc fusion) | 
0.638 | 3 | 0.756 | variant ActRIIB-Fc polypeptide E50P (Fc fusion) | 
0.477 |  |  | variant ActRIIB-Fc polypeptide L79K (Fc fusion) | 
